Laboratory results reported in PMC3510514 (Nucleic Acids Research, 2012).

Target: T1, GST-ubiquitin (human, UniProt P0CG48 1-76)
T1 construct: ubiquitin, the cut product of the polyubiquitin precursor; also called GST-tagged ubiquitin; source: purified
Experiment: pull-down; GST-ubiquitin (3 μg) on glutathione-sepharose beads, FLAG-Spartan (1 μg) in solution; 4 h at 4°C, buffer I (40 mM Tris HCl pH 7.5, 85 mM NaCl, 0.1 mM DTT, 10% glycerol, 0.01% NP40); immunoblot with anti-FLAG and anti-GST
Details: both partners purified

B1: FLAG-Spartan PIP mutant YF331,332AA (natural protein, human, UniProt Q9H040 1-489, looked up)
chain: MDDDLMLALRLQEEWNLQEAERDHAQESLSLVDASWELVDPTPDLQALFVQFNDQFFWGQLEAVEVKWSVRMTLCAGICSYEGKGGMCSIRLSEPLLKLRPRKDLVETLLHEMIHAYLFVTNNDKDREGHGPEFCKHMHRINSLTGANITVYHTFHDEVDEYRRHWWRCNGPCQHRPPYYGYVKRATNREPSAHDYWWAEHQKTCGGTYIKIKEPENYSKKGKGKAKLGKEPVLAAENKDKPNRGEAQLVIPFSGKGYVLGETSNLPSPGKLITSHAINKTQDLLNQNHSANAVRPNSKIKVKFEQNGSSKNSHLVSPAVSNSHQNVLSNAAPRVSFANQKAFRGVNGSPRISVTVGNIPKNSVSSSSQRRVSSSKISLRNSSKVTESASVMPSQDVSGSEDTFPNKRPRLEDKTVFDNFFIKKEQIKSSGNDPKYSTTTAQNSSSSSSQSKMVNCPVCQNEVLESQINEHLDWCLEGDSIKVKSEESL
notes: Spartan/C1orf124, human; cDNA clone bought from ImaGenes; also called PIP mutant Spartan; YF331,332AA Spartan; source: S. cerevisiae BJ5464, purified (glutathione-Sepharose, eluted by PreScission protease); not shown: GST, N-terminal, cleaved; FLAG, N-terminal, kept
B1: binds.
